# Test results from US20190071668.
# Molecular target: T1, Androgen receptor (AR) (Homo sapiens?) (UniProt P10275)
# T1 sequence: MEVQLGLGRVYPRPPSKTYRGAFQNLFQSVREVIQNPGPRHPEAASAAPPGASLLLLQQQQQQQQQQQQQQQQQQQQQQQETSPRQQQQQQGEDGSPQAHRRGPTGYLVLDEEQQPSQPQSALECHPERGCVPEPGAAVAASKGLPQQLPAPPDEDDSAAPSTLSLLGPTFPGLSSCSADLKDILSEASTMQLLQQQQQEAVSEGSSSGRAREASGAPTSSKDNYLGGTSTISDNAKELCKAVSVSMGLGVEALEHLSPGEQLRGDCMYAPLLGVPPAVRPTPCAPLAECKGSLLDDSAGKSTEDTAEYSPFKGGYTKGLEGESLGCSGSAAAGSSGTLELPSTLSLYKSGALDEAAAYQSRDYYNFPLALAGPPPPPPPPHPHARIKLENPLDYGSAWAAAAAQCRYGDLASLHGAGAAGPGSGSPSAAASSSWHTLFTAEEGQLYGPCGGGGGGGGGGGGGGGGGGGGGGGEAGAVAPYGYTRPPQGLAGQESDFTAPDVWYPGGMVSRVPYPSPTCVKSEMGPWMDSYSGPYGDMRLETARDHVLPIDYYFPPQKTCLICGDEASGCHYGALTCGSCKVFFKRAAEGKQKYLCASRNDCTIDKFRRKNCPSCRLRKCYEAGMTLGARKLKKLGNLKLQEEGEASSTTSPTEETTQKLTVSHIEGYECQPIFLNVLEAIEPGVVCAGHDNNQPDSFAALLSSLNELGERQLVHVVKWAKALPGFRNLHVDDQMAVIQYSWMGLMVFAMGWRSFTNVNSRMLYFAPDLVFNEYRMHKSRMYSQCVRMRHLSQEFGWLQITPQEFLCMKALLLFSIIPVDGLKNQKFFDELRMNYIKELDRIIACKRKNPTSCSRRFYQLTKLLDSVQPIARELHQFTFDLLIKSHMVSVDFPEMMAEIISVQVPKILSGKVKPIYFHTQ
# Test: pulldown
# Conditions: RIP; not significantly above background SLNCR
substance,measurement,value
SLNCR1 delta 568-637,binding signal (fold enrichment),14
